Target: M6P receptor (M6PR) (human)
Assay: cell-based or functional assay

intracellular α-gal A activity of Fabry patient fibroblasts after 18 hours incubation with 10 µg/ml enzyme (fold of untreated cells): 134 fold
Substance: Agalsidase beta (Genzyme, Fabrazyme) (from UniProt P06280 32-429)

— patent US20220380791A1
